Laboratory results taken from patent US20110263454A1, “Methods of Identifying Functional Characteristics of Promoters, Transcription Modifying Proteins and Transcription Modulating Agents” (Salk Institute for Biological Studies, priority 2008, published 2011).

B1: HNF4a: Hepatocyte Nuclear Factor α (NR2A1), cDNA driver (protein, UniProt P41235 1-474, looked up)
Hepatocyte nuclear factor …: MRLSKTLVDMDMADYSAALDPAYTTLEFENVQVLTMGNDTSPSEGTNLNAPNSLGVSALCAICGDRATGKHYGASSCDGCKGFFRRSVRKNHMYSCRFSRQCVVDKDKRNQCRYCRLKKCFRAGMKKEAVQNERDRISTRRSSYEDSSLPSINALLQAEVLSRQITSPVSGINGDIRAKKIASIADVCESMKEQLLVLVEWAKYIPAFCELPLDDQVALLRAHAGEHLLLGATKRSMVFKDVLLLGNDYIVPRHCPELAEMSRVSIRILDELVLPFQELQIDDNEYAYLKAIIFFDPDAKGLSDPGKIKRLRSQVQVSLEDYINDRQYDSRGRFGELLLLLPTLQSITWQMIEQIQFIKLFGMAKIDNLLQEMLLGGSPSDAPHAHHPLHPHLMQEHMGTNVIVANTMPTHLSNGQMCEWPRPRGQAATPETPQPSPPGGSGSEPYKLLPGAVATIVKPLSAIPQPTITKQEVI
B2: LXRb: Liver X Receptor β (NR1H2), cDNA driver (protein, UniProt P55055 1-460, looked up)
Oxysterols receptor LXR-beta: MSSPTTSSLDTPLPGNGPPQPGAPSSSPTVKEEGPEPWPGGPDPDVPGTDEASSACSTDWVIPDPEEEPERKRKKGPAPKMLGHELCRVCGDKASGFHYNVLSCEGCKGFFRRSVVRGGARRYACRGGGTCQMDAFMRRKCQQCRLRKCKEAGMREQCVLSEEQIRKKKIRKQQQESQSQSQSPVGPQGSSSSASGPGASPGGSEAGSQGSGEGEGVQLTAAQELMIQQLVAAQLQCNKRSFSDQPKVTPWPLGADPQSRDARQQRFAHFTELAIISVQEIVDFAKQVPGFLQLGREDQIALLKASTIEIMLLETARRYNHETECITFLKDFTYSKDDFHRAGLQVEFINPIFEFSRAMRRLGLDDAEYALLIAINIFSADRPNVQEPGRVEALQQPYVEALLSYTRIKRPQDQLRFPRMLMKLVSLRTLSSVHSEQVFALRLQDKKLPPLLSEIWDVHE
B3: RORa: RAR-related Orphan Receptor α (NR1F1), cDNA driver (protein, UniProt P35398 1-523, looked up)
Nuclear receptor ROR-alpha: MESAPAAPDPAASEPGSSGADAAAGSRETPLNQESARKSEPPAPVRRQSYSSTSRGISVTKKTHTSQIEIIPCKICGDKSSGIHYGVITCEGCKGFFRRSQQSNATYSCPRQKNCLIDRTSRNRCQHCRLQKCLAVGMSRDAVKFGRMSKKQRDSLYAEVQKHRMQQQQRDHQQQPGEAEPLTPTYNISANGLTELHDDLSNYIDGHTPEGSKADSAVSSFYLDIQPSPDQSGLDINGIKPEPICDYTPASGFFPYCSFTNGETSPTVSMAELEHLAQNISKSHLETCQYLREELQQITWQTFLQEEIENYQNKQREVMWQLCAIKITEAIQYVVEFAKRIDGFMELCQNDQIVLLKAGSLEVVFIRMCRAFDSQNNTVYFDGKYASPDVFKSLGCEDFISFVFEFGKSLCSMHLTEDEIALFSAFVLMSADRSWLQEKVKIEKLQQKIQLALQHVLQKNHREDGILTKLICKVSTLRALCGRHTEKLMAFKAIYPDIVRLHFPPLYKELFTSEFEPAMQIDG

What was measured:
[1] = system: hPPARg1 promoter; experiment: NHR-promoter luciferase screen, hPPARg1 promoter; assay type: cell-based, human; settings: for Luc. act., normalized to lacZ / Normalized Luc. act., normalized to control: PPARG1 promoter, hormone receptor with or without its ligand; for Normalized Luc. act., normalized to control: relative to control; for Results of assays of transcription factor (+/- ligand) with hPPARg1: Table 6d, luciferase activity relative to control (control = 1.00)
Experimental: (§1) The use, feasibility, and reproducibility of the functional NHR-promoter screen in a 48-well format have been tested validated. Briefly, there were co-expressed 50 ng of each NHR/NHR homodimer or NHR/RXR heterodimer with 100 ng promoter/luciferase construct and 50 ng of LacZ (as a control for transfection efficiency) in CV-1 cells using Fugene HD (Roche) as a transfection reagent (alternatively or additionally, a CMV-YFP construct can be used as a transfection control). Each of the nuclear hormone receptors that were used in these experiments was cloned into a pcDNA3.1 vector and comprised a C-terminally linked V5H6 tag. Twenty-four hours after transfection, appropriate ligands were added, where applicable, (see Table 5 for various ligands and concentrations and after 48 hrs, samples were assayed for luciferase and LacZ activity. To measure for luciferase activity 15 ul of sample was added to 30 ul of luciferase buffer (20 mM tricine, 1.07 mM MgCarbonate, 2.67 mM MgSulfate, 0.1 mM Naz-EDTA, 5 mM DTT, 5 mM ATP, 0.15 mg/ml CoA, 0.5 mM Luciferin), mixed briefly, and run in a Perkin Elmer Victor 5 luminometer. Thus, the functional NHR-promoter screen was used to observe the transcriptional activity of 29 promoters from various physiological pathways including inflammation, lipid and sugar metabolism, cholesterol transport, xenobiotic metabolism, and circadian rhythm.
(§2) The promoters that facilitate transcription of the indicated gene products that were tested using the protocols described herein are listed in the first row of the table. The nuclear hormone receptors and, where applicable, ligands that were assayed for their transcriptional effects on the promoters are listed in the first column of the table. The data represent the luciferase activity of each sample normalized to both the lacZ activity of that sample and to a control, e.g., no NHR or ligand, as customary in the art. As described previously, these normalizations allow the transcriptional activity of each reporter cell to be compared to other samples.
(§3) Tables 7-40 show the transcriptional effects of the hormone receptors, and, where applicable, ligands (orphan receptors are screened without ligand), on each individual promoter. […] The control data of each table are shown in their last rows.

[2] = system: mUCP2 promoter; experiment: NHR-promoter luciferase screen, mUCP2 promoter; assay type: cell-based, mouse; settings: for Luc. act., normalized to lacZ / Normalized Luc. act., normalized to control: mUCP2 promoter reporter, co-transfected HR, with or without its ligand; for Normalized Luc. act., normalized to control: relative to control; for luciferase activity normalized to lacZ activity and to a control, mUCP2: mUCP2 promoter-luciferase, CV-1 cells, NHR +/- ligand, control = 1.00
Experimental: as §1, §2, §3

[3] = system: mPer1 promoter; experiment: NHR-promoter luciferase screen, mPer1 promoter; assay type: cell-based, mouse; settings: for Luc. act., normalized to lacZ / Normalized Luc. act., normalized to control: Per1 promoter reporter, co-transfected HR, with or without its ligand; for Normalized Luc. act., normalized to control: relative to control; for luciferase activity normalized to lacZ activity and to a control, mPer1: mPer1 promoter-luciferase, CV-1 cells, NHR +/- ligand, control = 1.00
Experimental: as §1, §2, §3

[4] = system: MCP-1 promoter; experiment: NHR-promoter luciferase screen, MCP-1 promoter; assay type: cell-based; settings: for Normalized Luc. act., normalized to control / Luc. act., normalized to lacZ: MCP-1 promoter reporter; for Normalized Luc. act., normalized to control: HR without or with its ligand, relative to control; for Luc. act., normalized to lacZ: hormone receptor (HR) without or with its ligand; for mMCP-1 promoter reporter activity: transcription factor +/- ligand, control = 1.00
Experimental: as §1, §2, §3

[5] = system: hCYP3A4 promoter; experiment: NHR-promoter luciferase screen, hCYP3A4 promoter; assay type: cell-based, human; settings: for Luc. act., normalized to lacZ / Normalized Luc. act., normalized to control: CYP3A4 promoter, HR/ligand component; for hCYP3A4 promoter reporter activity: transcription factor +/- ligand, control = 1.00
Experimental: Briefly, there were co-expressed 50 ng of each NHR/NHR homodimer or NHR/RXR heterodimer with 100 ng promoter/luciferase construct and 50 ng of LacZ (as a control for transfection efficiency) in CV-1 cells using Fugene HD (Roche) as a transfection reagent (alternatively or additionally, a CMV-YFP construct can be used as a transfection control). Each of the nuclear hormone receptors that were used in these experiments was cloned into a pcDNA3.1 vector and comprised a C-terminally linked V5H6 tag.
as §2, §3

[6] = system: hMyoD promoter; experiment: NHR-promoter luciferase screen, hMyoD promoter; assay type: cell-based, human; settings: for Luc. act., normalized to lacZ / Normalized Luc. act., normalized to control: MyoD promoter reporter, co-transfected HR, without or with its ligand; for Normalized Luc. act., normalized to control: relative to control; for luciferase activity normalized to lacZ activity and to a control, hMyoD: hMyoD promoter-luciferase, CV-1 cells, NHR +/- ligand, control = 1.00
Experimental: as §1, §2, §3

| Molecule | Luc. act., normalized to lacZ [1] | Normalized Luc. act., normalized to control [1] | Results of assays of transcription factor (+/- ligand) with hPPARg1 [1] | Luc. act., normalized to lacZ [2] | Normalized Luc. act., normalized to control [2] | luciferase activity normalized to lacZ activity and to a control, mUCP2 [2] | Luc. act., normalized to lacZ [3] | Normalized Luc. act., normalized to control [3] | luciferase activity normalized to lacZ activity and to a control, mPer1 [3] | Normalized Luc. act., normalized to control [4] | Luc. act., normalized to lacZ [4] | mMCP-1 promoter reporter activity [4] | Luc. act., normalized to lacZ [5] | Normalized Luc. act., normalized to control [5] | hCYP3A4 promoter reporter activity [5] | Luc. act., normalized to lacZ [6] | Normalized Luc. act., normalized to control [6] | luciferase activity normalized to lacZ activity and to a control, hMyoD [6] |
| --- | --- | --- | --- | --- | --- | --- | --- | --- | --- | --- | --- | --- | --- | --- | --- | --- | --- | --- |
| TLX: Tailless (homolog of drosophila) (NR2E1), cDNA driver | 107.9 | 1.6 | 1.57 | 111.9 | 1.0 | 1.02 | 217.6 | 1.5 | 1.51 | 0.6 | 60.9 | 0.57 | 4.0 | 0.9 | 0.90 | 31.3 | 0.5 | 0.49 |
| LXRa: Liver X Receptor α (NR1H3), cDNA driver | 80.8 | 1.2 | 1.17 | 262.7 | 2.4 | 2.39 | 100.6 | 0.7 | 0.70 | 0.9 | 97.3 | 0.91 | 4.1 | 0.9 | 0.93 | 60.1 | 0.9 | 0.95 |
| B1 | 34.8 | 0.5 | 0.51 | 136.4 | 1.2 | 1.24 | 93.1 | 0.6 | 0.65 | 0.7 | 78.0 | 0.73 | 1.7 | 0.4 | 0.37 | 65.5 | 1.0 | 1.03 |
| B2 | 37.9 | 0.5 | 0.55 | 170.7 | 1.6 | 1.55 | 117.6 | 0.8 | 0.82 | 1.9 | 198.9 | 1.86 | 4.8 | 1.1 | 1.08 | 54.6 | 0.9 | 0.86 |
| B3 | 74.0 | 1.1 | 1.07 | 104.0 | 0.9 | 0.95 | 107.9 | 0.7 | 0.75 | 1.4 | 150.7 | 1.41 | 1.6 | 0.4 | 0.36 | 47.3 | 0.7 | 0.75 |
